This is an account of results in article PMC8038143, “Conformation-Specific Inhibitory Anti-MMP-7 Monoclonal Antibody Sensitizes Pancreatic Ductal Adenocarcinoma Cells to Chemotherapeutic Cell Kill” (Cancers, 2021).

Test [1] concerns the target T1, recombinant catalytic human MMP-7 (active enzyme) (Homo sapiens, UniProt P09237). Put plainly: cell-based or functional assay.
For test [2], the target named is T1, recombinant catalytic human MMP-7 …. The test is described as follows: ELISA; 96-well plate coated with MMPs at 5 mg/mL; GSM-192 incubated at 25 °C for 1 h; detected with goat anti-Fab/anti-mouse antibody and peroxidase-conjugated anti-goat antibody; four-parametric sigmoidal fit. To be noted: both partners purified. (ELISA stands for enzyme-linked immunosorbent assay.)

One may read the EC50 as the concentration giving half of the maximal effect.

T1 sequence (P09237 95-258): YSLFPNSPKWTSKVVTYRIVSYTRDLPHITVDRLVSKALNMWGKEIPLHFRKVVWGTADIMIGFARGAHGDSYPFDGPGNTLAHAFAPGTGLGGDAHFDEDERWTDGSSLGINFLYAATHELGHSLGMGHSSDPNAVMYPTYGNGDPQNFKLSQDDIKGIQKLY

B1: GSM-192 anti-MMP-7 monoclonal antibody (antibody, V domains shown)
VH: EVQLQQSGPELVKPGASVKIPCKASGYTFTDYNMDWMKQSHGKSLEWIGHINPNNGGTFYNQKFKDKATFIVDKSSNTAYMELRSLTSEDTAVYFCARGGGLRRGPFAYWGQGTLVTVS
VL: DIVTQSPASLAVSLGQRATISCRASESFDSYGNTFVHWYQQKPGQPPKLLIYLVSNLESGVPAGFRGRGSRTDFTLTIDPVEADDAATYYCQQNNEDPYTFGGGTKLEIK
notes: Whole mouse monoclonal antibody; source: mouse hybridoma (BALB/c B cells fused with NSO myeloma cells), supernatant, purified (protein A column)
With B1, in test [1], the “death of AsPC-1 PDAC cells treated with GSM-192, IC50” value worked out at 2.3 µM and the “death of CFPAC-1 PDAC cells treated with GSM-192, IC50” value worked out at 4.3 µM. In addition, in test [2], the EC50 turned out to be 0.043 ± 0.001 µM.
